Read-outs that look alike come from different tables or passages of the source.

Holding throughout (experiment): X-ray crystallography
The target in data set [1] is T1, PFV integrase (IN) (prototype foamy virus, UniProt P14350 752-1143).
Data set [2] addresses T1, PFV integrase (IN). This is another data set of the same source.
Data set [3] has as its target T1, PFV integrase (IN). This is another data set of the same source.

B1: unprocessed U5 viral DNA end, 19 bp (N:r) (dsDNA)
DNA 1: TGCGAAATTCCATGACAAT
DNA 2: ATTGTCATGGAATTTCGCA
Take B1: the binding result in the data set with PFV integrase (IN) [1] is given as “binds”.

B2: unprocessed U5 viral DNA end, 5'-phosphate on nonreactive strand (dsDNA)
DNA 1: TGCGAAATTCCATGACAAT
DNA 2: ATTGTCATGGAATTTCGCA
modifications: 5'-phosphate on strand 2 (nonreactive)
As to B2, in the data set with PFV integrase (IN) [2], the binding result is reported as “binds”.

B3: 3'-processed viral DNA end (R:N, 17/19-mer), formed in crystallo (dsDNA)
DNA 1: TGCGAAATTCCATGACA
DNA 2: ATTGTCATGGAATTTCGCA
B3: the binding result in the data set with PFV integrase (IN) [3] is listed as “binds”.

These data come from publication PMC3395085.
